Drawing on PMC314469, “Protein Interaction Networks by Proteome Peptide Scanning” (PLoS Biology, 2004), this text covers normalised SPOT signal, Boehringer light units (BLU); mean over the file's lines of this peptide for seven molecules.

Sequences and labels used below:
T1: Myo5 SH3 (MYO5_YEAST), Q04439
T1 chain: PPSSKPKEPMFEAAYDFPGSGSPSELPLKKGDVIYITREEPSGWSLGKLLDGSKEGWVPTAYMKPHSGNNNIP

T2: Boi2 SH3 (BOI2_YEAST), P39969
T2 chain: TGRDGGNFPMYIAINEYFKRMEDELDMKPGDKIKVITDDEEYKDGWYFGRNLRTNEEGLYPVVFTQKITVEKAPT

T3: Yfr024 SH3 (LSB3_YEAST), P43603
T3 chain: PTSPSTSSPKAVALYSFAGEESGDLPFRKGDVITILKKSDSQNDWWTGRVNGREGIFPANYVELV

T4: Yhr016c SH3 (YSC84_YEAST), P32793
T4 chain: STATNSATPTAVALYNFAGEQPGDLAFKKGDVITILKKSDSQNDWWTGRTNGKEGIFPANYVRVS

T5: Rvs167 SH3 (RV167_YEAST), P39743
T5 chain: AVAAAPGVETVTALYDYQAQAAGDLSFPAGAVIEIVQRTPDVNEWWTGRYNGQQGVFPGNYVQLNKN

T6: Boi1 SH3 (BOI1_YEAST), P38041
T6 chain: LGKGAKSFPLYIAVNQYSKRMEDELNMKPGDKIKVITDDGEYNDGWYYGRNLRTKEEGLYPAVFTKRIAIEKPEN

Chain of Sho1 SH3 (SHO1_YEAST), P40073 (P40073 295-366): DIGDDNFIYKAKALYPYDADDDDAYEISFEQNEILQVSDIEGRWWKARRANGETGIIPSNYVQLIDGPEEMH

The target in one assay is T1, Myo5 SH3 (MYO5_YEAST), Q04439. The assay can be described thus: SPOT array.
With YSTNRGIPARPSKD [YPL073C 79-92], the normalised SPOT signal, Boehringer light units (BLU); mean over the file's lines of this peptide came to 271.

For the molecule YGDNKKNPESPESV [YDL133W 210-223], the normalised SPOT signal, Boehringer light units (BLU); mean over the file's lines of this peptide was 147.

Molecule YVNAKLDPSLPSQY [YDR147W 90-103] came in with a normalised SPOT signal, Boehringer light units (BLU); mean over the file's lines of this peptide of 97.1.

For YVKERRPPPPPPLL [YLR425W 99-112], the normalised SPOT signal, Boehringer light units (BLU); mean over the file's lines of this peptide came out at 15900.

In turn, YSYLRLLPWWPSLA [YJL083W 456-469] showed a normalised SPOT signal, Boehringer light units (BLU); mean over the file's lines of this peptide of 188.

Take YEGPRGAPGMPEML [YJR016C 463-476]: the normalised SPOT signal, Boehringer light units (BLU); mean over the file's lines of this peptide is 166.

As to YPNGRTLPPVPTQV [YER064C 178-191], the normalised SPOT signal, Boehringer light units (BLU); mean over the file's lines of this peptide came out at 172.

The target of another assay is T2, Boi2 SH3 (BOI2_YEAST), P39969. Nature of the assay: SPOT array.
YSTNRGIPARPSKD [YPL073C 79-92]: the normalised SPOT signal, Boehringer light units (BLU); mean over the file's lines of this peptide was 107.

Consider YGDNKKNPESPESV [YDL133W 210-223], for which the normalised SPOT signal, Boehringer light units (BLU); mean over the file's lines of this peptide came out at 8.4.

Turning to YVNAKLDPSLPSQY [YDR147W 90-103], the normalised SPOT signal, Boehringer light units (BLU); mean over the file's lines of this peptide is 10.8.

Molecule YVKERRPPPPPPLL [YLR425W 99-112] returned a normalised SPOT signal, Boehringer light units (BLU); mean over the file's lines of this peptide of 17.8.

Regarding YSYLRLLPWWPSLA [YJL083W 456-469], the normalised SPOT signal, Boehringer light units (BLU); mean over the file's lines of this peptide turned out to be 54.3.

Molecule YEGPRGAPGMPEML [YJR016C 463-476] yielded a normalised SPOT signal, Boehringer light units (BLU); mean over the file's lines of this peptide of 26.3.

Take YPNGRTLPPVPTQV [YER064C 178-191]: the normalised SPOT signal, Boehringer light units (BLU); mean over the file's lines of this peptide was 18.3.

Another assay addresses Sho1 SH3 (SHO1_YEAST), P40073. The assay can be described thus: SPOT array.
YSTNRGIPARPSKD [YPL073C 79-92] returned a normalised SPOT signal, Boehringer light units (BLU); mean over the file's lines of this peptide of 179.

Turning to YGDNKKNPESPESV [YDL133W 210-223], the normalised SPOT signal, Boehringer light units (BLU); mean over the file's lines of this peptide was 25.3.

YVNAKLDPSLPSQY [YDR147W 90-103] returned a normalised SPOT signal, Boehringer light units (BLU); mean over the file's lines of this peptide of 29.3.

With YVKERRPPPPPPLL [YLR425W 99-112], the normalised SPOT signal, Boehringer light units (BLU); mean over the file's lines of this peptide was 63.5.

Turning to YSYLRLLPWWPSLA [YJL083W 456-469], the normalised SPOT signal, Boehringer light units (BLU); mean over the file's lines of this peptide is 138.

For the molecule YEGPRGAPGMPEML [YJR016C 463-476], the normalised SPOT signal, Boehringer light units (BLU); mean over the file's lines of this peptide came to 39.6.

Take YPNGRTLPPVPTQV [YER064C 178-191]: the normalised SPOT signal, Boehringer light units (BLU); mean over the file's lines of this peptide was 17400.

The target in another assay is T3, Yfr024 SH3 (LSB3_YEAST), P43603. The assay can be described thus: SPOT array.
As for YSTNRGIPARPSKD [YPL073C 79-92], the normalised SPOT signal, Boehringer light units (BLU); mean over the file's lines of this peptide came out at 17300.

YGDNKKNPESPESV [YDL133W 210-223] came in with a normalised SPOT signal, Boehringer light units (BLU); mean over the file's lines of this peptide of 13.3.

Turning to YVNAKLDPSLPSQY [YDR147W 90-103], the normalised SPOT signal, Boehringer light units (BLU); mean over the file's lines of this peptide came out at 91.6.

In turn, YVKERRPPPPPPLL [YLR425W 99-112] yielded a normalised SPOT signal, Boehringer light units (BLU); mean over the file's lines of this peptide of 330.

YSYLRLLPWWPSLA [YJL083W 456-469] registered a normalised SPOT signal, Boehringer light units (BLU); mean over the file's lines of this peptide of 94.4.

In the case of YEGPRGAPGMPEML [YJR016C 463-476], the normalised SPOT signal, Boehringer light units (BLU); mean over the file's lines of this peptide was 131.

Molecule YPNGRTLPPVPTQV [YER064C 178-191] displayed a normalised SPOT signal, Boehringer light units (BLU); mean over the file's lines of this peptide of 1460.

The next assay concerns the target T4, Yhr016c SH3 (YSC84_YEAST), P32793. Nature of the assay: SPOT array.
With YSTNRGIPARPSKD [YPL073C 79-92], the normalised SPOT signal, Boehringer light units (BLU); mean over the file's lines of this peptide was found to be 5100.

The molecule YGDNKKNPESPESV [YDL133W 210-223] registered a normalised SPOT signal, Boehringer light units (BLU); mean over the file's lines of this peptide of 19.5.

YVNAKLDPSLPSQY [YDR147W 90-103] returned a normalised SPOT signal, Boehringer light units (BLU); mean over the file's lines of this peptide of 17.8.

YVKERRPPPPPPLL [YLR425W 99-112]: the normalised SPOT signal, Boehringer light units (BLU); mean over the file's lines of this peptide amounted to 32.3.

YSYLRLLPWWPSLA [YJL083W 456-469] returned a normalised SPOT signal, Boehringer light units (BLU); mean over the file's lines of this peptide of 99.5.

YEGPRGAPGMPEML [YJR016C 463-476]: the normalised SPOT signal, Boehringer light units (BLU); mean over the file's lines of this peptide is 15.4.

In the case of YPNGRTLPPVPTQV [YER064C 178-191], the normalised SPOT signal, Boehringer light units (BLU); mean over the file's lines of this peptide is 505.

For another assay, the target named is T5, Rvs167 SH3 (RV167_YEAST), P39743. The assay can be described thus: SPOT array.
On to YSTNRGIPARPSKD [YPL073C 79-92], for which the normalised SPOT signal, Boehringer light units (BLU); mean over the file's lines of this peptide was 8430.

As to YGDNKKNPESPESV [YDL133W 210-223], the normalised SPOT signal, Boehringer light units (BLU); mean over the file's lines of this peptide worked out at 3.3.

Molecule YVNAKLDPSLPSQY [YDR147W 90-103] displayed a normalised SPOT signal, Boehringer light units (BLU); mean over the file's lines of this peptide of 41.1.

In turn, YVKERRPPPPPPLL [YLR425W 99-112] came in with a normalised SPOT signal, Boehringer light units (BLU); mean over the file's lines of this peptide of 163.

YSYLRLLPWWPSLA [YJL083W 456-469]: the normalised SPOT signal, Boehringer light units (BLU); mean over the file's lines of this peptide was determined as 115.

Molecule YEGPRGAPGMPEML [YJR016C 463-476] returned a normalised SPOT signal, Boehringer light units (BLU); mean over the file's lines of this peptide of 63.3.

YPNGRTLPPVPTQV [YER064C 178-191] displayed a normalised SPOT signal, Boehringer light units (BLU); mean over the file's lines of this peptide of 922.

Another assay concerns the target T6, Boi1 SH3 (BOI1_YEAST), P38041. The assay can be described thus: SPOT array.
On to YSTNRGIPARPSKD [YPL073C 79-92], for which the normalised SPOT signal, Boehringer light units (BLU); mean over the file's lines of this peptide was found to be 534.

Regarding YGDNKKNPESPESV [YDL133W 210-223], the normalised SPOT signal, Boehringer light units (BLU); mean over the file's lines of this peptide is 79.4.

As to YVNAKLDPSLPSQY [YDR147W 90-103], the normalised SPOT signal, Boehringer light units (BLU); mean over the file's lines of this peptide is 71.4.

On to YVKERRPPPPPPLL [YLR425W 99-112], for which the normalised SPOT signal, Boehringer light units (BLU); mean over the file's lines of this peptide was determined as 17.5.

Regarding YSYLRLLPWWPSLA [YJL083W 456-469], the normalised SPOT signal, Boehringer light units (BLU); mean over the file's lines of this peptide is 94.5.

The molecule YEGPRGAPGMPEML [YJR016C 463-476] yielded a normalised SPOT signal, Boehringer light units (BLU); mean over the file's lines of this peptide of 64.

As for YPNGRTLPPVPTQV [YER064C 178-191], the normalised SPOT signal, Boehringer light units (BLU); mean over the file's lines of this peptide was -0.
